Measurements reported in patent publication US20250011363A1, “OPTIMIZED SHORTENED PEPTIDE THAT BINDS TO ACETYLCHOLINE RECEPTOR, AND USE THEREOF” (SKINMED CO., LTD., priority 2021, published 2025).

What follows are binders tested against acetylcholine receptor (assay: SPR, AchR immobilized on chip).

Binding affinity (relative to RRQRR) (relative value to the RRQRR sequence)	Binding affinity (relative to RRGVRR) (value relative to the RRGVRR sequence)	Binder
192	–	RRQRRR
117	–	RRQRRT
–	33	RRGVRRE
163	–	DRRQRR
–	171	RRGVRRK
–	131	RRGVRRC
–	117	SRRGVRR
–	137	RRGVRRF
–	154	RRGVRRH
–	188	RRGVRRR
–	160	HRRGVRR
–	43	ERRGVRR
103	–	TRRQRR
147	–	ERRQRR
–	140	VRRGVRR
–	142	RRGVRRP
–	169	KRRGVRR
–	124	MRRGVRR
–	105	RRGVRRG
105	–	RRQRRY
130	–	YRRQRR
–	101	QRRGVRR
–	105	RRGVRRQ

Binding affinity (relative to RRQRR) (relative value to the RRQRR sequence)	Binding affinity (relative to RRGVRR) (value relative to the RRGVRR sequence)	Binder
109	–	RRQRRN
37	–	RRQRRE
–	134	RRGVRRW
133	–	RRQRRI
132	–	RRQRRF
119	–	MRRQRR
113	–	RRQRRS
175	–	RRQRRK
–	149	LRRGVRR
122	–	RRQRRM
–	127	RRGVRRM
158	–	RRQRRH
–	139	FRRGVRR
–	118	RRGVRRA
–	145	YRRGVRR
–	159	DRRGVRR
164	–	HRRQRR
–	109	NRRGVRR
–	146	RRGVRRL
–	149	RRGVRRV
143	–	FRRQRR
189	–	RRRQRR
105	–	QRRQRR

Binding affinity (relative to RRQRR) (relative value to the RRQRR sequence)	Binding affinity (relative to RRGVRR) (value relative to the RRGVRR sequence)	Binder
113	–	NRRQRR
–	137	GRRGVRR
121	–	SRRQRR
129	–	RRQRRW
173	–	KRRQRR
–	61	RRGVRRD
–	105	RRGVRRN
–	101	RRGVRRY
–	128	CRRGVRR
–	138	RRGVRRI
–	118	RRGVRRS
138	–	WRRQRR
–	134	WRRGVRR
101	–	RRQRRQ
–	185	RRRGVRR
–	134	ARRGVRR
–	113	RRGVRRT
65	–	RRQRRD
–	105	TRRGVRR
–	126	IRRGVRR
–	138	PRRGVRR
